Assay [1] concerns the target T1, biotin-labeled HA peptide (HA epitope peptide (influenza A virus …, also: biotin label, position not given here)).
T1 chain: YPYDVPDYA
The assay is described as follows: SPR. To be noted: both partners purified.

The target of assay [2] is T2, mitoNEET (Mito) fused to mCherry and the spaghetti monster HA tag (synthetic HA epitope tag (influenza A …)).
T2 construct: also called Mito-mCh-smHA; smHA-tagged Mito; source: U2OS, transfected, in living cells; not shown: mCherry, internal (between Mito and smHA), kept
T2 chain: YPYDVPDYA
The assay can be described thus: co-localisation of the fluorescent scFv with its tagged target in living cells. Conditions: partners not purified.

Assay [3] has as its target T3, mitoNEET (Mito) fused to mCherry and 1 × HA (synthetic HA epitope tag (influenza A …, UniProt P03437)).
T3 chain: YPYDVPDYA
Conditions: partners not purified.

No end group written: not given here.

2 molecules from publication PMC6610143 (Nature Communications, 2019) can be followed below.

Usually Kd stands for the free concentration of one partner at which half of the binding sites on the other are occupied at equilibrium, for simple one-to-one binding. Lower therefore signals tighter binding.

B1: purified recombinant HA frankenbody fused to GFP (from pET23b-FB-GFP) (scFv, V domains shown)
VH: EVKLVESGGGLVKPGGSLKLSCAASGFTFSSYGMSWVRQTPEKRLEWVATISRGGSYTYYPDSVKGRFTISRDNAKNTLYLQMSSLRSEDTAIYYCARRETYDEKGFAYWGQGTTLTVSS
VL: DIVLTQSPASLTVSLGQRATISCKSSQSLLNSGNQKNYLTWYQQKPGQPPKLLIYWASTRESGIPARFSGSGSGTDFTLNIHPVEEEDAATYYCQNDNSHPLTFGAGTKLEI
notes: also called purified FB-GFP; purified frankenbody; source: E. coli BL21 (DE3) pLysS, purified (HisTrap HP, Superdex 200)
B1 displayed a Kd in assay [1] of 14.7 ± 7.4 nM.

B2: HA frankenbody fused to mEGFP (χ15F11^HA) (scFv, V domains shown)
VH: EVKLVESGGGLVKPGGSLKLSCAASGFTFSSYGMSWVRQTPEKRLEWVATISRGGSYTYYPDSVKGRFTISRDNAKNTLYLQMSSLRSEDTAIYYCARRETYDEKGFAYWGQGTTLTVSS
VL: DIVLTQSPASLTVSLGQRATISCKSSQSLLNSGNQKNYLTWYQQKPGQPPKLLIYWASTRESGIPARFSGSGSGTDFTLNIHPVEEEDAATYYCQNDNSHPLTFGAGTKLEI
notes: also called FB-GFP; FB
Regarding B2, the results for the “Mito/Bg (mitochondria to background fluorescent intensity ratio)” value in assay [2] and in assay [3] were 16.6 and 3.5, respectively.
